In patent publication US20170320967A1 (published 2017):

Biological target: T1, recombinant human IL4 (human, UniProt P05112 25-153)
T1 construct: Bought protein; also called human IL4 (Millipore catalog # IL004)
T1 sequence (looked up): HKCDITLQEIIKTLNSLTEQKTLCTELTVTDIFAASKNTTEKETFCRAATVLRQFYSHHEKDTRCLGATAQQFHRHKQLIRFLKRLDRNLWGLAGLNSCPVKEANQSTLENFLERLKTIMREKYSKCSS
Assay: SPR (Biacore), captured antibody, IL4 as analyte

- Kd: 1.02 pM
B1: Binding Protein 18, (anti-IL4 × anti-IL13) × anti-IL13 (bispecific antibody, human IgG1, kappa, lambda)
heavy 1: not shown
light 1: DIVLTQSPASLAVSLGQRATISCRASESVDSYGQSYMHWYQQKAGQPPKLLIYLASNLESGVPARFSGSGSRTDFTLTIDPVQAEDAATYYCQQNAEDSRTFGGGTKLEIKGQPKAAPSVTLFPPSSEELQANKATLVCLISDFYPGAVTVAWKADSSPVKAGVETTTPSKQSNNKYAASSYLSLTPEQWKSHRSYSCQVTHEGSTVEKTVAPTECS
heavy 2: not shown
light 2: not shown
notes: Bispecific trivalent (CODV-Fab) × Fab-IgG1 Fc; kappa on CODV-LC, lambda on Fab-arm-LC; CODV-HC knob-RF, Fab-arm-HC hole; also called IL13 × (IL4 × IL13)
